Laboratory results as given in FireProtDB (doi:10.1110/ps.03176803).

B1: Guanyl-specific ribonuclease Sa, P05798 (parent)
chain: DVSGTVCLSALPPEATDTLNLIASDGPFPYSQDGVVFQNRESVLPTQSYGYYHEYTVITPGARTRGTRRIITGEATQEDYYTGDHYATFSLIDQTC

Variants of: B1
Conditions: Kitasatospora aureofaciens, Thermal, DSC, reversible: yes (90-95%), structure 1RGG, whole UniProt chain shown
[1] = pH 5.5, 55.6 °C, sodium acetate potassium chloride 0.01 M 0.05 M
[2] = pH 5.5, sodium acetate potassium chloride 0.01 M 0.05 M

Variant	ddG of mutation (higher = less stable) [1] [kcal/mol]	ddG of mutation (higher = less stable) (pH 7, 49 °C, PIPES 0.03 M) [kcal/mol]	Tm (pH 7, PIPES 0.03 M) [°C]	change of melting temperature, mutant - wild type (higher = more stable) (pH 7, PIPES 0.03 M) [°C]	unfolding enthalpy (calorimetric) (pH 7, PIPES 0.03 M) [kcal/mol]	unfolding enthalpy (van 't Hoff) (pH 7, PIPES 0.03 M) [kcal/mol]	Tm [2] [°C]	change of melting temperature, mutant - wild type (higher = more stable) [2] [°C]	unfolding enthalpy (calorimetric) [2] [kcal/mol]	unfolding enthalpy (van 't Hoff) [2] [kcal/mol]	Tm (pH 7, PIPES 0.3 M) [°C]	change of melting temperature, mutant - wild type (higher = more stable) (pH 7, PIPES 0.3 M) [°C]	unfolding enthalpy (calorimetric) (pH 7, PIPES 0.3 M) [kcal/mol]	unfolding enthalpy (van 't Hoff) (pH 7, PIPES 0.3 M) [kcal/mol]
DVSGTVCLSALPPEATDTLNLIASDGPFPYSQDGVVFANRESVLPTQSYGYYHEYTVITPGARTRGTRRIITGEATQEDYYTGDHYATFSLIDQTC [Q38A]	-0.4	-1	52.5	3.5	109	110								
DVSGTVCLSALPPEATDTLNLIASDGPFPYSQDGVVFQNRKSVLPTQSYGYYHEYTVITPGARTRGTRRIITGEATQEDYYTGDHYATFSLIDQTC [E41K]	1.5	0.7	46.5	-2.5	90	100	50.5	-5.1	97	101				
DVSGTVCLSALPPEATDTLNLIASDGPFPYSQDGVVFQNRESVLPTQSYGYYHQYTVITPGARTRGTRRIITGEATQEDYYTGDHYATFSLIDQTC [E54Q]	2.3	1.7	43.1	-5.9	81	87								
DVSGTVCLSALPPEATDTLNLIASDGPFPYSQDGVVFQNRESVLPTQSYGYYHEYTVITPGARTAGTRRIITGEATQEDYYTGDHYATFSLIDQTC [R65A]	1.3	1	45.6	-3.4	81	90	51.1	-4.5	81	78				
DVSGTVCLSALPPEATDTLNLIASDGPFPYSQDGVVFQNRESVLPTQSYGYYHEYTVITPGARTRGTRRIITGKATQEDYYTGDHYATFSLIDQTC [E74K]	-0.1	-0.9					56	0.4	103	99	52.1	3.1	101	113
DVSGTVCLSALPPEATDTLNLIASDGPFPYSQDGVVFQNRESVLPTQSYGYYHEYTVITPGARTRGTRRIITGEATQEDYYTGDQYATFSLIDQTC [H85Q]	0	0	49.1	0.1	90	89	55.5	-0.1	94	105				
